Data from patent publication US5847088A, “Antibodies specific for platelet-activating factor acetylhydrolase” (ICOS Corporation, priority 1995, dated 1998).

Key:
[1] = test system: antigen-induced eosinophil recruitment; experiment: Antigen-induced eosinophil recruitment to trachea of OVA-sensitized mice; format: in vivo, mouse; conditions: 750 units IV 30 minutes before and 24 hours after aerosolized OVA; 48 hours
Protocol: The accumulation of eosinophils in the airway is a characteristic feature of late phase immune responses which occur in asthma, rhinitis and eczema. BALB/c mice (Charles River) were sensitized by two intraperitoneal injections consisting of 1 μg of ovalbumin (OVA) in 4 mg of aluminum hydroxide (Imject alum, Pierce Laboratories, Rockford, Ill.) given at a 2 week interval. Fourteen days following the second immunization, the sensitized mice were challenged with either aerosolized OVA or saline as a control.
Prior to challenge mice were randomly placed into four groups, with four mice/group. Mice in groups 1 and 3 were pretreated with 140 μl of control buffer consisting of 25 mM tris, 0.5M NaCl, 1 mM EDTA and 0.1% Tween 80 given by intravenous injection. Mice in groups 2 and 4 were pretreated with 750 units of PAF-AH (activity of 5,500 units/ml given in 140 μl of PAF-AH buffer). Thirty minutes following administration of PAF-AH or buffer, mice in groups 1 and 2 were exposed to aerosolized PBS as described below, while mice in groups 3 and 4 were exposed to aerosolized OVA. Twenty-four hours later mice were treated a second time with either 140 μl of buffer (groups 1 and 3) or 750 units of PAF-AH in 140 μl of buffer (groups 2 and 4) given by intravenous injection.
Eosinophil infiltration of the trachea was induced in the sensitized mice by exposing the animals to aerosolized OVA. […]

PAF mediated lung injury = experiment: Guinea pig model of ARDS (PAF infusion, BAL protein); format: in vivo
Protocol: Based on the above observations, an ARDS model in guinea pigs was developed. A cannula is placed into the jugular vein of anaesthetized male Hartly guinea pigs (approximately 350-400 grams) and PAF diluted in a 500 μl volume of phosphate buffered saline with 0.25% bovine serum albumin as a carrier (PBS-BSA) is infused over a 15 minute period of time at a total dosage ranging from 100-400 ng/kg. At various intervals following PAF infusion, animals are sacrificed and lung tissue is collected. In guinea pigs infused with PAF, dose dependent lung damage and inflammation is clearly evident by 15 minutes and continues to be present at 60 minutes. Neutrophils and red blood cells are present in the alveolar spaces of PAF treated guinea pigs but absent in control or sham infused animals. Evidence of epithelial cell damage is also evident and reminiscent of hyaline membrane formation in human ARDS patients.
Groups of guinea pigs were pretreated with either PAF-AH (2000 units in 500 μl) or 500 μl of the PAF-AH buffer only. Fifteen minutes later these guinea pigs were infused with 400 ng/kg PAF in a 500 μl volume, infused over a 15 minute period. In addition, a sham group of guinea pigs was infused with 500 μl of PBS-BSA. […] To determine protein concentration in the BAL, samples were diluted 1:10 in saline and the OD 280 was determined.

[2] = Pharmacokinetics of PAF-AH in rat circulation (double mAb capture ELISA); format: in vivo; conditions: 2000 U IV, mean ± SEM
Protocol: Four rats received 2000 U of PAF-AH by IV injection in a 300 μl volume. Plasma was collected at various time points and stored at 4° C. and plasma concentrations of PAF-AH were determined by ELISA using a double mAb capture assay. In brief, monoclonal antibody 90G11D (Example 13) was diluted in 50 mM carbonate buffer pH 9.6 at 100 ng/ml and immobilized on Immulon 4 ELISA plates overnight at 4° C. After extensive washing with PBS containing 0.05% Tween 20, the plates were blocked for 1 hour at room temperature with 0.5% fish skin gelatin (Sigma) diluted in PBS. Serum samples diluted in PBS with 15 mM CHAPS were added in duplicate to the washed ELISA plate and incubated for 1 hour at room temperature. After washing, a biotin conjugate of monoclonal antibody 90F2D (Example 13) was added to the wells at a concentration of 5 μg/ml diluted in PBS and incubated for 1 hour at room temperature. After washing, 50 μl of a 1:1000 dilution of ExtraAvidin (Sigma) was added to the wells and incubated for 1 hour at room temperature. After washing, wells were developed using OPD as a substrate and quantitated. Enzyme activity was then calculated from a standard curve. […]

B1: PAF-AH: Recombinant human plasma platelet-activating factor acetylhydrolase (beginning at Ile42 of SEQ ID NO:8) expressed in E. coli (protein, UniProt Q13093 22-441, looked up)
Platelet-activating factor …: FDWQYINPVAHMKSSAWVNKIQVLMAAASFGQTKIPRGNGPYSVGCTDLMFDHTNKGTFLRLYYPSQDNDRLDTLWIPNKEYFWGLSKFLGTHWLMGNILRLLFGSMTTPANWNSPLRPGEKYPLVVFSHGLGAFRTLYSAIGIDLASHGFIVAAVEHRDRSASATYYFKDQSAAEIGDKSWLYLRTLKQEEETHIRNEQVRQRAKECSQALSLILDIDHGKPVKNALDLKFDMEQLKDSIDREKIAVIGHSFGGATVIQTLSEDQRFRCGIALDAWMFPLGDEVYSRIPQPLFFINSEYFQYPANIIKMKKCYSPDKERKMITIRGSVHQNFADFTFATGKIIGHMLKLKGDIDSNVAIDLSNKASLAFLQKHLGLHKDFDQWDCLIEGDDENLIPGTNINTTNQHIMLQNSSGIEKYN
**Q.** Which results are given for B1?
**A.** eosinophils in submucosal tissue of trachea [1]: very few eosinophils in the submucosal tissue; BAL fluid protein concentration (PAF mediated lung injury; 2000 units 15 minutes before 400 ng/kg PAF infusion): 1.13 ± 0.25 mg/mL; protection against PAF mediated lung injury (PAF mediated lung injury; 2000 units pretreatment): completely protect; plasma enzyme level at one hour [2]: 374 U/ml
